Data on 125 sequences can be found in the supplement of paper PMC9112550, “Optimization of the antimicrobial peptide Bac7 by deep mutational scanning” (BMC Biology, 2022).

The data set deals with Escherichia coli TOP10. Description: shrunken log2 fold change of peptide-encoding DNA abundance (4.5 h post-induction vs induction); higher = less antimicrobial activity (less host growth inhibition). To be noted: time post-induction: 4.5 h; library: site-saturation at positions 5, 18, 19, 20.
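Further: peptides expressed intracellularly from a pBAD plasmid library in pooled LB shake-flask culture, induced with 0.3% L-arabinose, DNA abundance read by NGS, three biological replicates, DESeq2 with apeglm shrinkage.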

Regarding RRIRIRPPRLPRPRPRPRQMPRP, the “shrunken log2 fold change” value was determined as 0.0961.
As for RRIRERPPRLPRPRPRPYIVPRP, the “shrunken log2 fold change” value came to 0.00789.
Regarding RRIRQRPPRLPRPRPRPMSQPRP, the “shrunken log2 fold change” value is -0.0185.
For RRIRKRPPRLPRPRPRPQSGPRP, the “shrunken log2 fold change” value amounted to 0.149.
Regarding RRIRRRPPRLPRPRPRPYFAPRP, the “shrunken log2 fold change” value came to 0.487.
For the sequence RRIRARPPRLPRPRPRPHYPPRP, the “shrunken log2 fold change” value is -1.36.
Take RRIRVRPPRLPRPRPRPNQYPRP: the “shrunken log2 fold change” value was -0.864.
For the sequence RRIRCRPPRLPRPRPRPYQKPRP, the “shrunken log2 fold change” value was -0.0372.
In the case of RRIRARPPRLPRPRPRPSKCPRP it was -0.0295; in that of RRIRDRPPRLPRPRPRPDCLPRP, 0.779; in that of RRIRIRPPRLPRPRPRPRETPRP, 0.0956.
Consider RRIRARPPRLPRPRPRPLWYPRP, for which the “shrunken log2 fold change” value is -0.278.
For the sequence RRIRQRPPRLPRPRPRPAVVPRP, the “shrunken log2 fold change” value stood at 0.242.
For the sequence RRIRYRPPRLPRPRPRPRWAPRP, the “shrunken log2 fold change” value was -0.0106.
For RRIRCRPPRLPRPRPRPMVRPRP, the “shrunken log2 fold change” value is 0.158.
For the sequence RRIRVRPPRLPRPRPRPIRNPRP, the “shrunken log2 fold change” value is -0.0718.
To RRIRKRPPRLPRPRPRPNKPPRP belongs -0.0304; to RRIRYRPPRLPRPRPRPCIFPRP, -0.559; to RRIRDRPPRLPRPRPRPDKMPRP, 0.0425.
In the case of RRIRVRPPRLPRPRPRPPVSPRP, the “shrunken log2 fold change” value was 0.847.
RRIRNRPPRLPRPRPRPNRQPRP: the “shrunken log2 fold change” value is -0.156.
To RRIRARPPRLPRPRPRPCPTPRP belongs 0.088.
To RRIRIRPPRLPRPRPRPTSHPRP belongs -0.19; to RRIRQRPPRLPRPRPRPENYPRP, 0.309.
Consider RRIRKRPPRLPRPRPRPQTMPRP, for which the “shrunken log2 fold change” value is 0.0588.
To RRIRARPPRLPRPRPRPVDCPRP belongs 0.26.
In the case of RRIRSRPPRLPRPRPRPRVPPRP, the “shrunken log2 fold change” value came out at 0.692.
Regarding RRIRFRPPRLPRPRPRPAQMPRP, the “shrunken log2 fold change” value came out at 0.121.
As to RRIRYRPPRLPRPRPRPRFHPRP, the “shrunken log2 fold change” value was -0.939.
Take RRIRARPPRLPRPRPRPMMVPRP: the “shrunken log2 fold change” value is 0.212.
As to RRIRIRPPRLPRPRPRPKVCPRP, the “shrunken log2 fold change” value was -0.028.
As for RRIRTRPPRLPRPRPRPGYNPRP, the “shrunken log2 fold change” value is -0.957.
On to RRIRARPPRLPRPRPRPHKSPRP, for which the “shrunken log2 fold change” value came out at 0.42.
In the case of RRIRMRPPRLPRPRPRPYYMPRP it was -0.0189; in that of RRIRARPPRLPRPRPRPYWVPRP, -0.57.
On to RRIRVRPPRLPRPRPRPTMEPRP, for which the “shrunken log2 fold change” value is -0.102.
Turning to RRIRARPPRLPRPRPRPPQFPRP, the “shrunken log2 fold change” value turned out to be 0.953.
As for RRIRTRPPRLPRPRPRPTWYPRP, the “shrunken log2 fold change” value was -0.0546.
On to RRIRLRPPRLPRPRPRPHFEPRP, for which the “shrunken log2 fold change” value is 0.118.
To RRIRKRPPRLPRPRPRPDHEPRP belongs -0.013; to RRIRSRPPRLPRPRPRPRKVPRP, 1.58; to RRIRIRPPRLPRPRPRPGHGPRP, -0.062.
Take RRIRGRPPRLPRPRPRPYFGPRP: the “shrunken log2 fold change” value was -0.335.
For RRIRCRPPRLPRPRPRPQDLPRP, the “shrunken log2 fold change” value is -0.472.
As to RRIRWRPPRLPRPRPRPGNKPRP, the “shrunken log2 fold change” value is -0.0586.
RRIRIRPPRLPRPRPRPMEYPRP: the “shrunken log2 fold change” value is -0.395.
For the sequence RRIRDRPPRLPRPRPRPPFPPRP, the “shrunken log2 fold change” value came to 0.206.
Consider RRIRLRPPRLPRPRPRPKDLPRP, for which the “shrunken log2 fold change” value was -0.242.
As to RRIRWRPPRLPRPRPRPNTIPRP, the “shrunken log2 fold change” value is -0.492.
Regarding RRIRLRPPRLPRPRPRPAYYPRP, the “shrunken log2 fold change” value was -0.253.
RRIRYRPPRLPRPRPRPDCCPRP: the “shrunken log2 fold change” value is -0.115.
On to RRIRDRPPRLPRPRPRPNDPPRP, for which the “shrunken log2 fold change” value was -0.125.
To RRIRVRPPRLPRPRPRPEDIPRP belongs -0.311; to RRIRQRPPRLPRPRPRPIASPRP, -0.0483; to RRIRPRPPRLPRPRPRPRMPPRP, 0.249.
As for RRIRARPPRLPRPRPRPMRYPRP, the “shrunken log2 fold change” value is -0.179.
Regarding RRIRVRPPRLPRPRPRPGWNPRP, the “shrunken log2 fold change” value is -0.0405.
To RRIRSRPPRLPRPRPRPSNRPRP belongs -0.114; to RRIRMRPPRLPRPRPRPKNNPRP, 0.311.
Take RRIRFRPPRLPRPRPRPQQEPRP: the “shrunken log2 fold change” value is -0.0424.
To RRIRWRPPRLPRPRPRPVGAPRP belongs 1.73.
Take RRIRVRPPRLPRPRPRPQHAPRP: the “shrunken log2 fold change” value is -0.154.
On to RRIRWRPPRLPRPRPRPGICPRP, for which the “shrunken log2 fold change” value was determined as 0.146.
Take RRIRWRPPRLPRPRPRPCKEPRP: the “shrunken log2 fold change” value was -0.125.
To RRIRFRPPRLPRPRPRPYWVPRP belongs -0.683; to RRIRARPPRLPRPRPRPKPAPRP, 0.711; to RRIRNRPPRLPRPRPRPLKFPRP, -0.212.
In the case of RRIRPRPPRLPRPRPRPYDEPRP it was -0.0606.
For RRIRGRPPRLPRPRPRPVMHPRP, the “shrunken log2 fold change” value was 0.575.
On to RRIRWRPPRLPRPRPRPHCKPRP, for which the “shrunken log2 fold change” value is -0.233.
As to RRIRCRPPRLPRPRPRPVYMPRP, the “shrunken log2 fold change” value is -0.788.
As to RRIRCRPPRLPRPRPRPLINPRP, the “shrunken log2 fold change” value was -0.621.
In the case of RRIRTRPPRLPRPRPRPPSYPRP it was -0.0622; in that of RRIRLRPPRLPRPRPRPLQTPRP, 0.101; in that of RRIRERPPRLPRPRPRPMDCPRP, -0.149.
To RRIRQRPPRLPRPRPRPYDCPRP belongs -0.195; to RRIRERPPRLPRPRPRPKPPPRP, 0.242; to RRIRARPPRLPRPRPRPWTQPRP, 0.0723.
Take RRIRFRPPRLPRPRPRPIVCPRP: the “shrunken log2 fold change” value was -0.406.
For the sequence RRIRKRPPRLPRPRPRPFQWPRP, the “shrunken log2 fold change” value is 0.0233.
In the case of RRIRVRPPRLPRPRPRPGQDPRP it was -0.41; in that of RRIRWRPPRLPRPRPRPGLNPRP, 0.0915; in that of RRIRVRPPRLPRPRPRPIRAPRP, -0.109.
For RRIRHRPPRLPRPRPRPRHPPRP, the “shrunken log2 fold change” value amounted to 0.0823.
Take RRIRFRPPRLPRPRPRPCMYPRP: the “shrunken log2 fold change” value is -0.418.
RRIRMRPPRLPRPRPRPEDSPRP: the “shrunken log2 fold change” value was found to be 0.0648.
In the case of RRIRQRPPRLPRPRPRPDEPPRP, the “shrunken log2 fold change” value was -0.0062.
Regarding RRIRGRPPRLPRPRPRPVKHPRP, the “shrunken log2 fold change” value is 0.168.
Take RRIRHRPPRLPRPRPRPDGFPRP: the “shrunken log2 fold change” value is -0.015.
RRIRYRPPRLPRPRPRPLQFPRP: the “shrunken log2 fold change” value was -0.537.
Turning to RRIRVRPPRLPRPRPRPDKIPRP, the “shrunken log2 fold change” value is -0.19.
With RRIRARPPRLPRPRPRPHTFPRP, the “shrunken log2 fold change” value is -0.314.
Take RRIRTRPPRLPRPRPRPLVEPRP: the “shrunken log2 fold change” value was -0.0326.
To RRIRHRPPRLPRPRPRPPNEPRP belongs 0.159.
As for RRIRNRPPRLPRPRPRPRKEPRP, the “shrunken log2 fold change” value was -0.0425.
As to RRIRYRPPRLPRPRPRPGSTPRP, the “shrunken log2 fold change” value was -0.0367.
To RRIRYRPPRLPRPRPRPVGLPRP belongs 0.158; to RRIRSRPPRLPRPRPRPKMHPRP, 0.157; to RRIRVRPPRLPRPRPRPFEYPRP, -0.151.
Turning to RRIRCRPPRLPRPRPRPLRPPRP, the “shrunken log2 fold change” value turned out to be 0.815.
To RRIRSRPPRLPRPRPRPYCTPRP belongs -0.256.
Regarding RRIRLRPPRLPRPRPRPQKMPRP, the “shrunken log2 fold change” value was -0.0278.
Consider RRIRIRPPRLPRPRPRPTTKPRP, for which the “shrunken log2 fold change” value is -0.664.
For RRIRQRPPRLPRPRPRPWCMPRP, the “shrunken log2 fold change” value was -0.342.
In the case of RRIRKRPPRLPRPRPRPPDPPRP it was 0.889.
RRIRGRPPRLPRPRPRPDIEPRP: the “shrunken log2 fold change” value worked out at 0.735.
As for RRIRNRPPRLPRPRPRPSKLPRP, the “shrunken log2 fold change” value is -0.582.
On to RRIRVRPPRLPRPRPRPCIDPRP, for which the “shrunken log2 fold change” value is -0.106.
On to RRIRYRPPRLPRPRPRPDMSPRP, for which the “shrunken log2 fold change” value is -0.0894.
In the case of RRIRIRPPRLPRPRPRPLRQPRP it was 0.335.
In the case of RRIRWRPPRLPRPRPRPRGDPRP it was 1.03; in that of RRIRHRPPRLPRPRPRPHRLPRP, -0.0453; in that of RRIRFRPPRLPRPRPRPWREPRP, -0.149.
In the case of RRIRERPPRLPRPRPRPACDPRP it was 0.0619; in that of RRIRSRPPRLPRPRPRPVVPPRP, 0.0433; in that of RRIRERPPRLPRPRPRPMFFPRP, -0.0867.
In the case of RRIRPRPPRLPRPRPRPHYYPRP, the “shrunken log2 fold change” value was -0.439.
On to RRIRKRPPRLPRPRPRPVKPPRP, for which the “shrunken log2 fold change” value was determined as 0.0508.
In the case of RRIRERPPRLPRPRPRPRGWPRP it was 0.917; in that of RRIRHRPPRLPRPRPRPQLMPRP, -0.351; in that of RRIRHRPPRLPRPRPRPDVFPRP, -0.37.
For the sequence RRIRKRPPRLPRPRPRPDKDPRP, the “shrunken log2 fold change” value is -0.0555.
For RRIRPRPPRLPRPRPRPDQEPRP, the “shrunken log2 fold change” value is -0.151.
In the case of RRIRDRPPRLPRPRPRPSQHPRP it was -0.343; in that of RRIRPRPPRLPRPRPRPTVMPRP, 0.0636.
